Here are results for 27 molecules from paper PMC10786891, “Massively parallel profiling of RNA-targeting CRISPR-Cas13d”.

Broadly, the Kd is a measure of binding affinity in units of concentration. A lower Kd goes with a tighter complex.

The labels stand for the following.
T1: EsCas13d, nuclease-dead (Eubacterium siraeum, UniProt B0MS50, R295A;H300A;R849A;H854A)
T1 sequence: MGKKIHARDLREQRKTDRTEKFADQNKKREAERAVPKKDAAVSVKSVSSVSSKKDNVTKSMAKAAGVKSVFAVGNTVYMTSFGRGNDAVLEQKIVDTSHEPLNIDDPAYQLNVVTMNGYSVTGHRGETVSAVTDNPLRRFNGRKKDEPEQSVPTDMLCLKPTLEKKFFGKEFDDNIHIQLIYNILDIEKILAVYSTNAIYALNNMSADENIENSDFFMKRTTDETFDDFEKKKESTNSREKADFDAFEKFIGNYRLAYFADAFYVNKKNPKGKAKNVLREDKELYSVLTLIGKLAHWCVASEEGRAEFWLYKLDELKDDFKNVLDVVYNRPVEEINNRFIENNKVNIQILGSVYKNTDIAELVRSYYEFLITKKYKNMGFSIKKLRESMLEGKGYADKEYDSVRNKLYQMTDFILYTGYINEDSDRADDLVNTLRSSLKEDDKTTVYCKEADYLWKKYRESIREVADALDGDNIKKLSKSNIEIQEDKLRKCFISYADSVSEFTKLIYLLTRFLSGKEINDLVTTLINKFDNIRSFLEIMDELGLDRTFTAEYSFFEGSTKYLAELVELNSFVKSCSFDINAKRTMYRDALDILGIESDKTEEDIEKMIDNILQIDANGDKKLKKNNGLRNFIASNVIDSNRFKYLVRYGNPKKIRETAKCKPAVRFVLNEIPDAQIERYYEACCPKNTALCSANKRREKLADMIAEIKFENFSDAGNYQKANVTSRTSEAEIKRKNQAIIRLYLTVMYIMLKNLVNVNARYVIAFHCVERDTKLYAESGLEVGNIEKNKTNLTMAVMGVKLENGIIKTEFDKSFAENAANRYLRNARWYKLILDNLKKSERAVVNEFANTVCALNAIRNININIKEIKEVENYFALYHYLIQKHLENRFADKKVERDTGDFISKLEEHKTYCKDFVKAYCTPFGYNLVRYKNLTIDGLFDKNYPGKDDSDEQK

B1: target 1 U8C,G12A (mixed)
RNA 1: CACCCGUGCAAAAAUGCAGGGGUCUAAAACUGAGCGGAUAACCUCUCUAUGG
RNA 2: GGGAAUGGAUCCACAUCUACGAAUUCGUACCAUAGAGAGAUUACCCGCUCACCGAGAUCGGAAGAGCACACGU
B2: target 1 insC 3' of 8,insC 3' of 3 (mixed)
RNA 1: CACCCGUGCAAAAAUGCAGGGGUCUAAAACUGAGCGGAUAACCUCUCUAUGG
RNA 2: GGGAAUGGAUCCACAUCUACGAAUUCGUACCAUAGAGAGGUUAUCCCGCUCCACCGAGAUCGGAAGAGCACACGU
B3: target 1 C7G,U11G (mixed)
RNA 1: CACCCGUGCAAAAAUGCAGGGGUCUAAAACUGAGCGGAUAACCUCUCUAUGG
RNA 2: GGGAAUGGAUCCACAUCUACGAAUUCGUACCAUAGAGAGGGUAUGCGCUCACCGAGAUCGGAAGAGCACACGU
B4: target 2 MT 5'PFS GGU 3'PFS UGU (mixed)
RNA 1: CACCCGUGCAAAAUUGCAGGGGUCUAAAACCUUCUCCAAAUUGUUUCAUCCU
RNA 2: GGGAAUGGAUCCACAUCUACGAAUUCGGUAGGAUGAAACAAUUUGGAGAAGUGUAGAUCGGAAGAGCACACGU
B5: target 2 MT 5'PFS AUA 3'PFS ACG (mixed)
RNA 1: CACCCGUGCAAAAUUGCAGGGGUCUAAAACCUUCUCCAAAUUGUUUCAUCCU
RNA 2: GGGAAUGGAUCCACAUCUACGAAUUCAUAAGGAUGAAACAAUUUGGAGAAGACGAGAUCGGAAGAGCACACGU
B6: target 2 MT 5'PFS UUU 3'PFS UUA (mixed)
RNA 1: CACCCGUGCAAAAUUGCAGGGGUCUAAAACCUUCUCCAAAUUGUUUCAUCCU
RNA 2: GGGAAUGGAUCCACAUCUACGAAUUCUUUAGGAUGAAACAAUUUGGAGAAGUUAAGAUCGGAAGAGCACACGU
B7: target 2 MT 5'PFS CUA 3'PFS UUC (mixed)
RNA 1: CACCCGUGCAAAAUUGCAGGGGUCUAAAACCUUCUCCAAAUUGUUUCAUCCU
RNA 2: GGGAAUGGAUCCACAUCUACGAAUUCCUAAGGAUGAAACAAUUUGGAGAAGUUCAGAUCGGAAGAGCACACGU
B8: target 2 MT 5'PFS AUA 3'PFS ACC (mixed)
RNA 1: CACCCGUGCAAAAUUGCAGGGGUCUAAAACCUUCUCCAAAUUGUUUCAUCCU
RNA 2: GGGAAUGGAUCCACAUCUACGAAUUCAUAAGGAUGAAACAAUUUGGAGAAGACCAGAUCGGAAGAGCACACGU
B9: target 2 MT 5'PFS UGC 3'PFS ACA (mixed)
RNA 1: CACCCGUGCAAAAUUGCAGGGGUCUAAAACCUUCUCCAAAUUGUUUCAUCCU
RNA 2: GGGAAUGGAUCCACAUCUACGAAUUCUGCAGGAUGAAACAAUUUGGAGAAGACAAGAUCGGAAGAGCACACGU
B10: target 2 MT 5'PFS AUA 3'PFS ACA (mixed)
RNA 1: CACCCGUGCAAAAUUGCAGGGGUCUAAAACCUUCUCCAAAUUGUUUCAUCCU
RNA 2: GGGAAUGGAUCCACAUCUACGAAUUCAUAAGGAUGAAACAAUUUGGAGAAGACAAGAUCGGAAGAGCACACGU
B11: target 2 MT 5'PFS UGU 3'PFS ACU (mixed)
RNA 1: CACCCGUGCAAAAUUGCAGGGGUCUAAAACCUUCUCCAAAUUGUUUCAUCCU
RNA 2: GGGAAUGGAUCCACAUCUACGAAUUCUGUAGGAUGAAACAAUUUGGAGAAGACUAGAUCGGAAGAGCACACGU
B12: target 2 MT 5'PFS GAG 3'PFS UGC (mixed)
RNA 1: CACCCGUGCAAAAUUGCAGGGGUCUAAAACCUUCUCCAAAUUGUUUCAUCCU
RNA 2: GGGAAUGGAUCCACAUCUACGAAUUCGAGAGGAUGAAACAAUUUGGAGAAGUGCAGAUCGGAAGAGCACACGU
B13: target 2 MT 5'PFS GAA 3'PFS ACG (mixed)
RNA 1: CACCCGUGCAAAAUUGCAGGGGUCUAAAACCUUCUCCAAAUUGUUUCAUCCU
RNA 2: GGGAAUGGAUCCACAUCUACGAAUUCGAAAGGAUGAAACAAUUUGGAGAAGACGAGAUCGGAAGAGCACACGU
B14: target 2 MT 5'PFS UGU 3'PFS ACA (mixed)
RNA 1: CACCCGUGCAAAAUUGCAGGGGUCUAAAACCUUCUCCAAAUUGUUUCAUCCU
RNA 2: GGGAAUGGAUCCACAUCUACGAAUUCUGUAGGAUGAAACAAUUUGGAGAAGACAAGAUCGGAAGAGCACACGU
B15: target 2 MT 5'PFS GCC 3'PFS AUU (mixed)
RNA 1: CACCCGUGCAAAAUUGCAGGGGUCUAAAACCUUCUCCAAAUUGUUUCAUCCU
RNA 2: GGGAAUGGAUCCACAUCUACGAAUUCGCCAGGAUGAAACAAUUUGGAGAAGAUUAGAUCGGAAGAGCACACGU
B16: target 2 MT 5'PFS GAG 3'PFS UGU (mixed)
RNA 1: CACCCGUGCAAAAUUGCAGGGGUCUAAAACCUUCUCCAAAUUGUUUCAUCCU
RNA 2: GGGAAUGGAUCCACAUCUACGAAUUCGAGAGGAUGAAACAAUUUGGAGAAGUGUAGAUCGGAAGAGCACACGU
B17: target 2 MT 5'PFS GGC 3'PFS AUG (mixed)
RNA 1: CACCCGUGCAAAAUUGCAGGGGUCUAAAACCUUCUCCAAAUUGUUUCAUCCU
RNA 2: GGGAAUGGAUCCACAUCUACGAAUUCGGCAGGAUGAAACAAUUUGGAGAAGAUGAGAUCGGAAGAGCACACGU
B18: target 2 MT 5'PFS GGC 3'PFS AUA (mixed)
RNA 1: CACCCGUGCAAAAUUGCAGGGGUCUAAAACCUUCUCCAAAUUGUUUCAUCCU
RNA 2: GGGAAUGGAUCCACAUCUACGAAUUCGGCAGGAUGAAACAAUUUGGAGAAGAUAAGAUCGGAAGAGCACACGU
B19: target 2 MT 5'PFS GGC 3'PFS AUC (mixed)
RNA 1: CACCCGUGCAAAAUUGCAGGGGUCUAAAACCUUCUCCAAAUUGUUUCAUCCU
RNA 2: GGGAAUGGAUCCACAUCUACGAAUUCGGCAGGAUGAAACAAUUUGGAGAAGAUCAGAUCGGAAGAGCACACGU
B20: target 2 MT 5'PFS UGU 3'PFS ACG (mixed)
RNA 1: CACCCGUGCAAAAUUGCAGGGGUCUAAAACCUUCUCCAAAUUGUUUCAUCCU
RNA 2: GGGAAUGGAUCCACAUCUACGAAUUCUGUAGGAUGAAACAAUUUGGAGAAGACGAGAUCGGAAGAGCACACGU
B21: target 2 MT 5'PFS CUA 3'PFS UUU (mixed)
RNA 1: CACCCGUGCAAAAUUGCAGGGGUCUAAAACCUUCUCCAAAUUGUUUCAUCCU
RNA 2: GGGAAUGGAUCCACAUCUACGAAUUCCUAAGGAUGAAACAAUUUGGAGAAGUUUAGAUCGGAAGAGCACACGU
B22: target 2 MT 5'PFS CUA 3'PFS UUA (mixed)
RNA 1: CACCCGUGCAAAAUUGCAGGGGUCUAAAACCUUCUCCAAAUUGUUUCAUCCU
RNA 2: GGGAAUGGAUCCACAUCUACGAAUUCCUAAGGAUGAAACAAUUUGGAGAAGUUAAGAUCGGAAGAGCACACGU
B23: target 2 MT 5'PFS UGC 3'PFS ACU (mixed)
RNA 1: CACCCGUGCAAAAUUGCAGGGGUCUAAAACCUUCUCCAAAUUGUUUCAUCCU
RNA 2: GGGAAUGGAUCCACAUCUACGAAUUCUGCAGGAUGAAACAAUUUGGAGAAGACUAGAUCGGAAGAGCACACGU
B24: target 2 MT 5'PFS GGC 3'PFS AUU (mixed)
RNA 1: CACCCGUGCAAAAUUGCAGGGGUCUAAAACCUUCUCCAAAUUGUUUCAUCCU
RNA 2: GGGAAUGGAUCCACAUCUACGAAUUCGGCAGGAUGAAACAAUUUGGAGAAGAUUAGAUCGGAAGAGCACACGU
B25: target 2 MT 5'PFS AUA 3'PFS ACU (mixed)
RNA 1: CACCCGUGCAAAAUUGCAGGGGUCUAAAACCUUCUCCAAAUUGUUUCAUCCU
RNA 2: GGGAAUGGAUCCACAUCUACGAAUUCAUAAGGAUGAAACAAUUUGGAGAAGACUAGAUCGGAAGAGCACACGU
B26: target 2 MT 5'PFS GAG 3'PFS UGA (mixed)
RNA 1: CACCCGUGCAAAAUUGCAGGGGUCUAAAACCUUCUCCAAAUUGUUUCAUCCU
RNA 2: GGGAAUGGAUCCACAUCUACGAAUUCGAGAGGAUGAAACAAUUUGGAGAAGUGAAGAUCGGAAGAGCACACGU
B27: target 2 MT 5'PFS UAU 3'PFS UAG (mixed)
RNA 1: CACCCGUGCAAAAUUGCAGGGGUCUAAAACCUUCUCCAAAUUGUUUCAUCCU
RNA 2: GGGAAUGGAUCCACAUCUACGAAUUCUAUAGGAUGAAACAAUUUGGAGAAGUAGAGAUCGGAAGAGCACACGU

The target of the data set is T1, EsCas13d, nuclease-dead. Description: crRNA (strand 1, pre-loaded); Mg2+; 40 mM Tris-HCl pH 7.5, 150 mM NaCl, 6 mM MgCl2, 1 mM DTT, 0.1% Tween-20, 0.2 mg/ml BSA; 25 C; 10 min per concentration, then washed. Conditions: tags: His6-TwinStrep-SUMO cleaved; N-terminal SNAP kept (SNAP-Surface 488); label: 3' end held by stalled T7 RNA polymerase.
B1 gave a dissociation constant (Kd) of 12.5 ± 1 nM.

As to B2, binding was put at a Kd of 13.3 ± 0.7 nM.

B3 registered a Kd of 24.7 ± 1.5 nM.

Regarding B4, the Kd came out at 33 ± 4 nM.

As to B5, the affinity, expressed as Kd, was 14 ± 5 nM.

As to B6, the affinity, expressed as Kd, was 9.9 ± 1.3 nM.

B7 returned a Kd of 3.1 ± 0.9 nM.

In the case of B8, the affinity, expressed as Kd, was 10.7 ± 1.8 nM.

B9 displayed a Kd of 17 ± 4 nM.

In the case of B10, the Kd came out at 6.9 ± 1.6 nM.

As for B11, the affinity, expressed as Kd, was 28 ± 12 nM.

For the molecule B12, the affinity, expressed as Kd, was 7.1 ± 0.7 nM. This Kd lies about 3.9-fold lower than the previous one.

In turn, B13 registered a Kd of 11 ± 1.3 nM.

Molecule B14 came in with a Kd of 14.9 ± 3.5 nM.

For the molecule B15, the Kd came to 10.7 ± 1.3 nM.

Molecule B16 showed a Kd of 13.5 ± 1.7 nM.

B17 displayed a Kd of 15.2 ± 1.7 nM.

For the molecule B18, the affinity, expressed as Kd, was 10.8 ± 1 nM. This Kd and that of the molecule before are within 1.5-fold of each other.

With B19, the Kd was determined as 13.2 ± 1.1 nM.

B20: the Kd is 15 ± 1.9 nM.

As to B21, binding was characterised by a dissociation constant (Kd) of 2.61 ± 0.28 nM.

In turn, B22 registered a Kd of 1.88 ± 0.26 nM.

B23 registered a Kd of about 49 nM.

Molecule B24 had a Kd of 12.4 ± 1.3 nM.

With B25, the Kd came to 10.7 ± 1.4 nM.

As to B26, the Kd worked out at 9.5 ± 1.8 nM.

As to B27, the Kd came to 34 ± 7 nM. This Kd is about 3.6-fold higher than that of the molecule before.
